Experiments:
[1] = target: T1, FumI (class I fumarase) (Methylotuvimicrobium alcaliphilum, UniProt G4T1T1); test: spectrophotometric hydration assay at […] nm, Hill fit; type: biochemical; conditions: 50 mM Tris-HCl pH 8.5, optimal conditions, aerobic; Hill n = 1.4 ± 0.2; read-out: Class I fumarase / S0.5
T1 construct: gene fumA; full length, 507 residues, His6-tagged, pET22b(+), E. coli BL21(DE3); homodimer (130 kDa); aerobically purified, stabilised with iron-sulfur mixture; [4Fe-4S]

[2] = target: T2, FumC (class II fumarase) (Methylotuvimicrobium alcaliphilum, UniProt G4SWR5); conditions: read-out: Class II fumarase (FumС) / Km(S0.5*); 50 mM Tris-HCl pH 8.0; text b40 prints 0.10 ± 0.001 mM
[3] = target: T1, FumI (class I fumarase); test: coupled assay with NADP-dependent malic enzyme at […] nm; type: biochemical; conditions: activator; 1 mM succinate, 1 mM fumarate, 50 mM Tris-HCl pH 8.5, 5 mM MgCl2; coupling enzyme present
[4] = target: T2, FumC (class II fumarase); test: as above; type: biochemical; parameters: full length (gene 1404 bp), His6-tagged, pET22b(+), E. coli BL21(DE3); homotetramer (184 kDa); conditions: 1 mM fumarate, 50 mM Tris-HCl pH 8.0, coupling enzyme present
[5] = substrate: O=C(O)C[C@H](O)C(=O)O; test: purified protein
[6] = substrate: C/C(=C\C(=O)O)C(=O)O; test: purified protein; type: biochemical, Methylotuvimicrobium alcaliphilum; conditions: 50 mM Tris-HCl pH 8.5, aerobic, Hill n = 1.4 ± 0.1, error in Table 1 printed ± 0.2
[7] = 50 mM Tris-HCl pH 8.5, aerobic, Hill n = 1.7 ± 0.1, error in text b33 ± 0.03
[8] = 50 mM Tris-HCl pH 8.5, Hill n = 2.1 ± 0.4

Question: For `O=C(O)/C=C/C(=O)O` [fumarate], which Km [1] is on record?
Answer: The Km was 280 ± 40 µM.

Question: And the Km [2]?
Answer: The Km was 110 ± 4 µM.

Question: For `O=C(O)CCC(=O)O` [succinate], which “fold activity at 1 mM” value [3] is on record?
Answer: Its value is ~ 1.5 fold.

Question: For `O=C(O)CC(O)(CC(=O)O)C(=O)O` [citrate], which “% reduction of activity at 1 mM” value ([4]; 1 mM citrate) is on record?
Answer: The value was 50%.

Question: For `C=C(OP(=O)(O)O)C(=O)O` [phosphoenolpyruvate], which “% reduction of activity at 1 mM” value ([4]; 1 mM phosphoenolpyruvate) is on record?
Answer: The value was 30%.

B1: FumI (class I fumarase) (Methylotuvimicrobium alcaliphilum 20Z) (protein)
chain: MTLIRQEDFIQSIFESLQYISYYHPQDFIEAMYRAYQNEQSSAAKDAIAQILINSRMCAEGHRPICQDTGIVVVFLKIGMNVQWDAQISITDMVNEGVRRAFMHPDNILRASILSDPAGKRINTRDNTPAVVYMEVVPGDRVEVEIAAKGGGSEAKSKFAMLNPSDSIVDWVMQTVPTMGAGWCPPGILGIGIGGTAEKAMLLAKQACMESVDIHELIARGPVNALEELRLELYEKVNALGIGAQGMGGLTTVLDIKIKDYPAHAANKPVAMIPNCAATRHIHFELDGSGPAELPVPCLEDWPKIAWEGGNSAKRVNLDTVTKDEIATWRPGETLLLSGTLLTGRDAAHKRIVEMLERGEALPEGVDFTNKFIYYVGPVDPVRDEVVGPAGPTTATRMDKFTEAMLAQTGLIGMIGKAERGPVAIEAIKKHRAVYLMAVGGAAYLVSKAIRKARVVAFEDLGMEAVHEFVIEDMPVTVAVDVDGESIHKSGPKQWQAKIGKIPVVSK
notes: full length, 507 residues, His6-tagged, pET22b(+), E. coli BL21(DE3); homodimer (130 kDa); aerobically purified, stabilised with iron-sulfur mixture; [4Fe-4S]
Question: Which K0.5 [5, 7] does the source give for B1 here?
Answer: The K0.5 was 0.55 ± 0.02 mM.

Question: What about the kcat/Km [5, 7] of the same molecule?
Answer: Its kcat/Km is 180 M⁻¹ s⁻¹.

Question: What about the K0.5 [6] of the same molecule?
Answer: Its K0.5 is 0.24 ± 0.02 mM.

Question: And the kcat/Km [6]?
Answer: Its kcat/Km is 750 M⁻¹ s⁻¹.

B2: FumC (class II fumarase) (Methylotuvimicrobium alcaliphilum 20Z) (protein)
chain: MTIGSSAGRIESDALGSIEVPADKYWGAQTQRSLHYFAIGDERLPRPLIRALGIVKRCAALSNIAQNKLDEKLGRAIVDAAQEVIDGALDEHFPLVIWQTGSGTQSNMNANEVIANRVNERLGGALGSKSPVHPNDHCNLSQSSNDVFPSAMHIAAVEQLQCLLIPSLQRLQKTLSDKSQAWADIIKIGRTHLQDATPLSLGQEFSGYATQVQLSIERLQDSLKRLYPLAQGGTAVGTGLNSSQGFAELFADEVAKFTGHPFTSAANKFEAMAAHDALVELSGVLNCSAVSLNKIANDIRLLSSGPRSGLGELILPANEPGSSIMPGKINPTQCEALTMVCTQVIGNHTTVTLAGAQGHLELNTFKPVMIYNVLQSIRLLGDAAHSFTEHCVAGIQPNAERIAELMEQSLMLVTALVPQIGYDKAAQIAKTAMQNGTTLREEAIAVGLVSAEQFDAIVRPERMIMPK
Question: What does the source list for B2?
Answer: K0.5 [5, 8]: 0.14 ± 0.01 mM; kcat/Km [5, 8]: 1000 M⁻¹ s⁻¹

From publication PMC10602362, “Interchangeability of class I and II fumarases in an obligate methanotroph Methylotuvimicrobium alcaliphilum 20Z” (PLOS ONE, 2023)
